Experimental data from IntAct's records for PubMed 24144979.

B1: Zinc finger protein RFP (Homo sapiens), P14373 (parent)
chain: MASGSVAECLQQETTCPVCLQYFAEPMMLDCGHNICCACLARCWGTAETNVSCPQCRETFPQRHMRPNRHLANVTQLVKQLRTERPSGPGGEMGVCEKHREPLKLYCEEDQMPICVVCDRSREHRGHSVLPLEEAVEGFKEQIQNQLDHLKRVKDLKKRRRAQGEQARAELLSLTQMEREKIVWEFEQLYHSLKEHEYRLLARLEELDLAIYNSINGAITQFSCNISHLSSLIAQLEEKQQQPTRELLQDIGDTLSRAERIRIPEPWITPPDLQEKIHIFAQKCLFLTESLKQFTEKMQSDMEKIQELREAQLYSVDVTLDPDTAYPSLILSDNLRQVRYSYLQQDLPDNPERFNLFPCVLGSPCFIAGRHYWEVEVGDKAKWTIGVCEDSVCRKGGVTSAPQNGFWAVSLWYGKEYWALTSPMTALPLRTPLQRVGIFLDYDAGEVSFYNVTERCHTFTFSHATFCGPVRPYFSLSYSGGKSAAPLIICPMSGIDGFSGHVGNHGHSMETSP

Variants of: B1
Conditions: with ubp7_human USP7, Q93009
Sequence of ubp7_human USP7, Q93009 (Q93009 whole entry, looked up): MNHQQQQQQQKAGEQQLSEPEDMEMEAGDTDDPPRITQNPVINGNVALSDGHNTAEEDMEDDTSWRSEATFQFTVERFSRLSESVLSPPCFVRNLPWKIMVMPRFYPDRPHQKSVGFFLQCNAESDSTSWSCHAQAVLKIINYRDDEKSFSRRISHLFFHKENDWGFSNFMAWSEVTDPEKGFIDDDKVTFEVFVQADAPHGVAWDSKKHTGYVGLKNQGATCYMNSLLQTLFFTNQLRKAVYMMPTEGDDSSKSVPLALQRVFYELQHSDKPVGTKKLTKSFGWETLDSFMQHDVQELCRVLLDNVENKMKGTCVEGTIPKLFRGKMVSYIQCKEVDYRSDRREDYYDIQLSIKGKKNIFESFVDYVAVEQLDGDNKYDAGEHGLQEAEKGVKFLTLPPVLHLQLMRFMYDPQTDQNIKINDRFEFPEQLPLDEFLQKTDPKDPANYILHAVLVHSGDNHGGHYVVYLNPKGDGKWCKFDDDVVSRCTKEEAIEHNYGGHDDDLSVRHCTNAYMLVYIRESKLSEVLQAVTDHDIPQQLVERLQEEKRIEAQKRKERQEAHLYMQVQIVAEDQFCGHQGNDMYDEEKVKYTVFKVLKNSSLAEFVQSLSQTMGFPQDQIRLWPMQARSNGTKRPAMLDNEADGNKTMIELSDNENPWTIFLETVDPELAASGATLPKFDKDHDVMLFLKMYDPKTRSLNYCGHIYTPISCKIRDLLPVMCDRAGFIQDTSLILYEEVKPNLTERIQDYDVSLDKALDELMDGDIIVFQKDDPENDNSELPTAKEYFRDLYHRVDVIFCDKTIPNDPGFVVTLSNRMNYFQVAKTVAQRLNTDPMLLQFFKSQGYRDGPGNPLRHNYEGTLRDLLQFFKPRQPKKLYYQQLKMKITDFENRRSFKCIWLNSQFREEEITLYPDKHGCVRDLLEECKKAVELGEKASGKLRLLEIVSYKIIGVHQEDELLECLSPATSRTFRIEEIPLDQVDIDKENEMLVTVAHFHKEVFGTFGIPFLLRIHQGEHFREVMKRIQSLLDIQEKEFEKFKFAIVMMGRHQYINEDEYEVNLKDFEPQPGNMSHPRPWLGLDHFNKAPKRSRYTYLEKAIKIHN

effect of a mutation on the interaction	Variant
disrupting interaction strength	K79R;K304R;K380R;K382R

Variants of: B1
Conditions: with ubp7_human USP7, Q93009
Remark: another data set of the same source

effect of a mutation on the interaction	Variant
decreasing interaction strength	K79R;K304R;K380R;K382R
with no effect	C118A;H124A
with no effect	C96A;H99A
